These are literature values, as cited in paper PMC5578174.

In one data set the target is Ang-2 (Homo sapiens) (UniProt O15123).
The target in another data set is PDGFRα (Homo sapiens) (UniProt P16234).
PDGFRα (Homo sapiens), sequence (P16234 24-528): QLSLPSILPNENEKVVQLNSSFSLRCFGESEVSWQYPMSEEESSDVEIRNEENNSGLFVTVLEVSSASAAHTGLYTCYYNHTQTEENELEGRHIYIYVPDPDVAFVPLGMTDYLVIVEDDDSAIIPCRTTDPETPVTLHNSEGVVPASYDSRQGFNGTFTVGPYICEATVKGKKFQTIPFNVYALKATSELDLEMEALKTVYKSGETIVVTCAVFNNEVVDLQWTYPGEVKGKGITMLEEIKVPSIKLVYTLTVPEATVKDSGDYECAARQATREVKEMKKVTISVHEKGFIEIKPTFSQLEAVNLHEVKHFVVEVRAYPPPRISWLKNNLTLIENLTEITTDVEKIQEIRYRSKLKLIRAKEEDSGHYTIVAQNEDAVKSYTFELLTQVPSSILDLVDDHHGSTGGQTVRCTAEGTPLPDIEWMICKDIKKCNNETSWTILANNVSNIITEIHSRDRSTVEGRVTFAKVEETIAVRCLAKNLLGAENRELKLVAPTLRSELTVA

Ang-2 (Homo sapiens), sequence (O15123 19-496): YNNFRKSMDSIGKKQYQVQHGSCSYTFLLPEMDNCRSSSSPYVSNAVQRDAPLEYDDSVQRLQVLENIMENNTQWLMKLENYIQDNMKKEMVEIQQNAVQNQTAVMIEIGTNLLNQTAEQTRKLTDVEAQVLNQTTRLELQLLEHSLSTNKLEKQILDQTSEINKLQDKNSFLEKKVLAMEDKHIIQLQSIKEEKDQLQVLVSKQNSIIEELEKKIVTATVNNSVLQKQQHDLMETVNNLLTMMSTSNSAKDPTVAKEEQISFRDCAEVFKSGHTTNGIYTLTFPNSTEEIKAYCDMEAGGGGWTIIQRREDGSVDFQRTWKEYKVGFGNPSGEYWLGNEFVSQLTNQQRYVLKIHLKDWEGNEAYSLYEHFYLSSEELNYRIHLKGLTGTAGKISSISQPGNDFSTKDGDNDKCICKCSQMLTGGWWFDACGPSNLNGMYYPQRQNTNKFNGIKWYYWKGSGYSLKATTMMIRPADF

Usually Kd stands for the constant that tells how readily two partners part at equilibrium. For the substance Nesvacumab, in the data set with Ang-2 (Homo sapiens), the Kd was 0.024 nM.

For the substance Olaratumab, the equilibrium dissociation constant (Kd) in the data set with PDGFRα (Homo sapiens) was 0.04 nM.
